The values below come from PMC10715591, “EspB and HtpG interact with the type III-A CRISPR/Cas system of Mycobacterium tuberculosis” (Frontiers in Molecular Biosciences, 2023).

Broadly, the Kd is a measure of binding affinity in units of concentration. Higher therefore signals a looser complex. A word on the koff: it is the first-order rate constant of dissociation. Higher therefore signals a short-lived complex. By kon is commonly meant a measure of how fast the partners come together. Low readings indicate slower complex formation, high ones faster complex formation.

The assay deals with T1, ESX-1 secretion-associated protein EspB (Mycobacterium tuberculosis H37Rv, UniProt P9WJD9 1-460).
T1 construct: also called Esx-1 secreted protein B
The assay is described as follows: SPR; Biacore 8K, 25°C; EspB covalently immobilised on a CM5 chip; analytes injected at 25-3,200 nM, 30 uL/min for 2 min; global fit to a 1:1 mass transport model. Conditions: both partners purified. In general terms: SPR reads the build-up and loss of mass on a sensor chip optically.

T1 sequence (P9WJD9 whole entry): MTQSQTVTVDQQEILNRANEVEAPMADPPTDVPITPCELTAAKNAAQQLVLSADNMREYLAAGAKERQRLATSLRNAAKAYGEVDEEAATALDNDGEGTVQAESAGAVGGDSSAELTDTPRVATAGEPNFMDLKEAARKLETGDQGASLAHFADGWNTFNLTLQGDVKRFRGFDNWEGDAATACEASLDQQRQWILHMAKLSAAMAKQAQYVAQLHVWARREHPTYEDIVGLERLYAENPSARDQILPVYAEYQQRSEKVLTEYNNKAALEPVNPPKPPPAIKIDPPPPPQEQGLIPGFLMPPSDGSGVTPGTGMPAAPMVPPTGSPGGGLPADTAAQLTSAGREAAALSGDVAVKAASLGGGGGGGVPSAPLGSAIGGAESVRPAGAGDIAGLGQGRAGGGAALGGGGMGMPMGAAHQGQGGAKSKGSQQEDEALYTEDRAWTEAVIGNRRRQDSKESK

B1: MtbCsm6 (natural protein)
chain: MILFSPIGTADPITALGDGPMLHIVRHYRPIVVVLFLSAEIAAFENADRRYSAAITRLAPETDVRIVTYTNPSVHRFDLFVPVFRNHLVELSAEFPDRTILLNTSSGTPAMQAALVAINVFGIPRTTAVQVSTPARALSKPGDRESPDAYDLELMWDANDDNQPGAPNRCFEATSAALGALLERANLKQLIVSYDYSAAVTIAADSRLPDQVSNLIRGAMHRSRLEHLVAPKFFKDTAFTYDPANKVAEYISALALLAKREQWAEFARSATPAITIVLRAAVAKHLPEDRYLDDMGRVDRRKLEREPEIRCALKHPPKSPNAEWYLYTKDWLALLRQFAPDRVGALEVLGRFESRVRNTAAHEIVSISEDRITKDGGLLPEQLLKILARETGADLTLYDRLNDEIIRQIDMAPLG
As to B1, binding was characterised by a dissociation constant (Kd) of 0.0316 nM, the koff turned out to be 5.83e-07 s⁻¹ and the on-rate (kon) came out at 18400 M⁻¹ s⁻¹.

B2: MtbCsm3 (natural protein)
chain: MTTSYAKIEITGTLTVLTGLQIGAGDGFSAIGAVDKPVVRDPLSRLPMIPGTSLKGKVRTLLSRQYGADTETFYRKPNEDHAHIRRLFGDTEEYMTGRLVFRDTKLTNKDDLEARGAKTLTEVKFENAINRVTAKANLRQMERVIPGSEFAFSLVYEVSFGTPGEEQKASLPSSDEIIEDFNAIARGLKLLELDYLGGSGTRGYGQVKFSNLKARAAVGALDGSLLEKLNHELAAV
Consider B2, for which the Kd amounted to 1.9 nM, the dissociation rate constant (koff) came to 0.000462 s⁻¹ and the kon amounted to 243000 M⁻¹ s⁻¹.

B3: MtbCsm2 (natural protein)
chain: MSVIQDDYVKQAEVIRGLPKKKNGFELTTTQLRVLLSLTAQLFDEAQQSANPTLPRQLKEKVQYLRVRFVYQSGREDAVKTFVRNAKLLEALEGIGDSRDGLLRFCRYMEALAAYKKYLDPKDK
B3: the Kd turned out to be 0.125 nM, the koff worked out at 8.3e-07 s⁻¹ and the on-rate constant (kon) was 6660 M⁻¹ s⁻¹.
